Test results: patent publication US5885797

B1: I-mfc (protein)
chain: MSQVSGQCPSRCDAPHGVPSAALDPAQTMSLLPGLEVARSTHPVEASSEEGFPEEAAPSMPHDSGLRAQQALNSIDLDVPTEAVTCQPQGNPQGCTPLLPNGSSHDHLSEPGSAGHAGNGALGGSKAHRKLQTHPPQPPNRSAFRRVAWSPPRVTRNTASRAW
B2: I-mfa (protein)
chain: MSQVSGQCPSRCDAPHGVPSAALDPAQTMSLLPGLEVARSTHPVEASSEEGFPEEAAPSMPHDSGLRAQQALNSIDLDVPTEAVTCQPQGNPQGCTPLLPNGSSHDHLSEPGSAGHAGNGALGGSKAHRKLQTHPSLGSQAGRKSRGSARSASQVPLQAQEDCCVHCILSCLFCEFLTLCNILLDCATCGSCSSEDSCLCCCCCGSGECADCDLPCDLDCGIVDACCESADCLEICMECCGLCFSS
B3: I-mfb (protein)
chain: MSQVSGQCPSRCDAPHGVPSAALDPAQTMSLLPGLEVARSTHPVEASSEEGFPEEAAPSMPHDSGLRAQQALNSIDLDVPTEAVTCQPQGNPQGCTPLLPNGSSHDHLSEPGSAGHAGNGALGGSKAHRKLQTHPSLGSQAGRKSRGSARSASQVPLQAQEGKAPAVRIHRQTASPTCCLRNAQLSGTALRSLRLESQGHRELNNKTLSQSNNKKPGVAAHAAIIPALTRPKQNCHDPSLLPGTHGVGKEF

target: E12

Relative CAT Activity (%), p4R-TK-CAT, NIH3T3	Binder
93.8%	B1
76.3%	B2
98.7%	B3
